Tests used:
NC(=O)NC(=O)NC(N)=O = tested on: T1, NC(=O)NC(=O)NC(N)=O; assay: ammonia release, Berthelot assay; format: biochemical, Rhodococcus sp. Mel; details: phosphate buffer, pH optimum, 25 °C, saturation not achieved
T1 construct: recombinant

NC(=O)NC(N)=O = tested on: T2, NC(=O)NC(N)=O; assay: ammonia release, Berthelot assay; format: biochemical, Rhodococcus sp. Mel; details: phosphate buffer, pH optimum, 25 °C
T2 construct: recombinant

[1] = biological target: Triuret hydrolase (TrtA) from Herbaspirillum sp. BH-1, wild type, His-tag cleaved (Herbaspirillum sp. BH-1); assay: SEC; HiLoad 16/600 Superdex 200 pg, 50 mM Tris, 200 mM sodium chloride, pH 8, 1 ml/min; His-tag cleaved TrtA

Sequence of RhdBiuH (Rhodococcus sp. Mel) (chain, as listed by the source): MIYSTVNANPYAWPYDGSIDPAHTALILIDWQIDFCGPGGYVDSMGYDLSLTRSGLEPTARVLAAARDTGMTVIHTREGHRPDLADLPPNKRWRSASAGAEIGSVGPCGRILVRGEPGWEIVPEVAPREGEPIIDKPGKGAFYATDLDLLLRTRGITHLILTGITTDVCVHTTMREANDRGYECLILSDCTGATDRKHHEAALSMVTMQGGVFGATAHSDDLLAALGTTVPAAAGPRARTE

Row | Substance | kcat (NC(=O)NC(=O)NC(N)=O) [s⁻¹] | kcat/Km (NC(=O)NC(=O)NC(N)=O) [M⁻¹ s⁻¹] | Km (NC(=O)NC(N)=O) [µM] | stoichiometry N [1]
1 | RhdBiuH (Rhodococcus sp. Mel) | 0.14 | 170 ± 40 | 95 ± 26 | 
2 | Triuret hydrolase (TrtA) from Herbaspirillum sp. BH-1, wild type, His-tag cleaved (from UniProt A0A2N6JFX7 1-220) (enzyme) |  |  |  | 2

Reference: publication PMC7948467, “Discovery of an ultraspecific triuret hydrolase (TrtA) establishes the triuret biodegradation pathway” (The Journal of Biological Chemistry, 2020)
